Laboratory results published in article PMC6572864, “Recombinant production, purification, crystallization, and structure analysis of human transforming growth factor β2 in a new conformation” (Scientific Reports, 2019).

Molecular target: the molecule itself
Assay: crystal structure; sitting-drop vapor diffusion, 20 °C, 20% isopropanol, 0.2 M calcium chloride, 0.1 M sodium acetate pH 4.6; space group P4(1)2(1)2, 2.0 Å; half a disulfide-linked dimer per asymmetric unit

B1: human transforming growth factor β2, mature growth-factor moiety (GF) (ligand, UniProt P61812 303-414, looked up)
chain: ALDAAYCFRNVQDNCCLRPLYIDFKRDLGWKWIHEPKGYNANFCAGACPYLWSSDTQHSRVLSLYNTINPEASASPCCVSQDLEPLTILYYIGKTPKIEQLSNMIVKSCKCS
notes: human TGFβ2 growth-factor moiety, residues A303-S414 of the precursor (UniProt P61812), 112 residues, released by cleavage at R302-A303; Disulfide-linked homodimer (intermolecular disulfide C379-C379); The crystals came from octahistidine-tagged pro-TGFβ2 mixed with methylamine-induced hα2M; they also grew from pro-TGFβ2 alone; also called mature TGFβ2; TGFβ2 GF; source: purified together with …
stoichiometry N: 2
